Test results published in patent publication US11976099B2, “Compositions and methods for treatment of bone associated diseases” (THE NATIONAL INSTITUTE FOR BIOTECHNOLOGY IN THE NEGEV LTD., priority 2016, dated 2024).

Biological target: T1, αvβ3 integrin (Homo sapiens, UniProt P05106+P06756, DEL719-788)
T1 construct: purchased R&D Systems
Assay: YSD binding of M-CSFM to αvβ3 integrin
Conditions: even at high concentrations of 200 nM
Procedure: For expressing the M-CSFM gene and the two M-CSFRGD libraries on the yeast surface, the SDCAA medium was replaced by SGCAA medium (2% galactose, 0.67% yeast nitrogen base, 0.5% bacto casamino acids, 1.47% sodium citrate, 0.429% citric acid monohydrate) and the yeasts were incubated overnight at 30° C. until the culture reached OD600=10.0 (10^8 cells per ml). A number of cells equal to ten times the library size was added to 1 ml of PBS containing 1% bovine serum albumin (PBSA); the suspension was centrifuged, and the supernatant was removed. For binding analysis of M-CSFM and the M-CSFRGD libraries to c-FMS, yeast cells were incubated with mouse anti c-myc antibody, 9E10 (Abcam, Cambridge, MA, USA) in a 1:50 ratio and different concentrations of soluble Fc conjugated human c-FMS (R&D systems, USA) for 1 h at room temperature. After an additional washing step, cells were labeled with secondary PE anti mouse (Sigma-Aldrich, St. Louis, MO, USA) and goat anti human Fc FITC antibodies (Sigma-Aldrich) for 30 min at 4° C. in the dark. For binding analysis of M-CSFRGD libraries to integrin, the experiment was performed with integrin binding buffer (IBB; 20 mM Tris, pH7.5, 2 mM CaCl2, 100 mM NaCl, 1 mM MgCl2, and 1 mM MnCl2)+1% BSA. The yeast cells were incubated with chicken anti c-myc and different concentrations of soluble human αvβ3 integrin (R&D Systems, Minneapolis, MN, USA) for 1 h. […]

T1 sequence (P06756 31-992 limits assumed, stated change not applied): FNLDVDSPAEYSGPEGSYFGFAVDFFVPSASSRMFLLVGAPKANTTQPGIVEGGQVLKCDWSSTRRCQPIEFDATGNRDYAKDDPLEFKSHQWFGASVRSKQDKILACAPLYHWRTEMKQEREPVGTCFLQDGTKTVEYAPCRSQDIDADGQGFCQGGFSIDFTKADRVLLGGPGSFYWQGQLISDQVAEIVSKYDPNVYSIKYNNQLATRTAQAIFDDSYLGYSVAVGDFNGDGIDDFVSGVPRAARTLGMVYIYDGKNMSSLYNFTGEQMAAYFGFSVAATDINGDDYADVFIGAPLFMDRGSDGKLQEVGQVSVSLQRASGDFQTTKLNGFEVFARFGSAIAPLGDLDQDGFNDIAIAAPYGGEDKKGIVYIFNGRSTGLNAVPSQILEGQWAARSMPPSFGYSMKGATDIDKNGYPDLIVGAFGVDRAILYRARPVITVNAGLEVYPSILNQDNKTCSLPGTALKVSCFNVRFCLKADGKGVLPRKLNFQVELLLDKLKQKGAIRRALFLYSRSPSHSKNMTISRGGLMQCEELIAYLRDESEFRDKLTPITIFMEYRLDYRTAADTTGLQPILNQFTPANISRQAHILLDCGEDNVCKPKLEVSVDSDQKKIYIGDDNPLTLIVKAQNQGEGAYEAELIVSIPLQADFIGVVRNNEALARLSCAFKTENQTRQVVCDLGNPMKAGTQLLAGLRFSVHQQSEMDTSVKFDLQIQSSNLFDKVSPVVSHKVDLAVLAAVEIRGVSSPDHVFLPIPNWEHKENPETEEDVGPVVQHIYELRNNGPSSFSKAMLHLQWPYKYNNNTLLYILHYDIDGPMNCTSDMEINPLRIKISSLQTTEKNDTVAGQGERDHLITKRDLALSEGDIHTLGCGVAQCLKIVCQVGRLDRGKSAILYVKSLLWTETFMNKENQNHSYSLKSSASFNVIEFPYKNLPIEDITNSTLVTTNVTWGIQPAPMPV
T1 sequence (P05106 27-718 limits assumed, stated change not applied): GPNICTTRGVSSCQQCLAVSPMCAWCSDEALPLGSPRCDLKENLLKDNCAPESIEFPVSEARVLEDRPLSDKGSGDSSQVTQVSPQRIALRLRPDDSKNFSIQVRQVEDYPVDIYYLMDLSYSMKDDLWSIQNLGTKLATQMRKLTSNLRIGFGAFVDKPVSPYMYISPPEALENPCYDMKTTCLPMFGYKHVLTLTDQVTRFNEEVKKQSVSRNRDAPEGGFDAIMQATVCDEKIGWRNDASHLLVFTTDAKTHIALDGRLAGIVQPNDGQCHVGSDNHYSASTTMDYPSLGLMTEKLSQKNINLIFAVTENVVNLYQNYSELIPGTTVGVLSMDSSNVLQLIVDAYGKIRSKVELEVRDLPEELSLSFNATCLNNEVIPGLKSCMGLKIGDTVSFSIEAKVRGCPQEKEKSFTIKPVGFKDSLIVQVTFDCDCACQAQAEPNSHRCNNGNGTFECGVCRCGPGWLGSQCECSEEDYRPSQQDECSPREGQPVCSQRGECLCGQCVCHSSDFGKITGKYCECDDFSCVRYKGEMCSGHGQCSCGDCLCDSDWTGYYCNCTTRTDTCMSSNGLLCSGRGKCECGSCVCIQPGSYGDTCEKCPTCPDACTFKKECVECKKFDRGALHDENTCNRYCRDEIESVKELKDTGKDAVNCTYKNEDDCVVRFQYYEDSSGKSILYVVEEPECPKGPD

- binding to αvβ3 integrin: did not bind
B1: M-CSFM: 158 amino acid M-CSF with cysteine at position 31 replaced by serine (SEQ ID NO: 2) (protein)
chain: EEVSEYCSHMIGSGHLQSLQRLIDSQMETSSQITFEFVDQEQLKDPVCYLKKAFLLVQDIMEDTMRFRDNTPNAIAIVQLQELSLRLKSCFTKDYEEHDKACVRTFYETPLQLLEKVKNVFNETKNLLDKDWNIFSKNCNNSFAECSSQGHERQSEGS
